From patent publication US20170306005A1 (NASCIENT, published 2017)

How the values were obtained:
[1] = molecular target: T1, mouse tenascin-C rCd4-His-FBG (rat; mouse, UniProt P05540 207-392, limits assumed); assay: anti-FLAG capture ELISA, scFv supernatant
T1 construct: domain: domains 3 and 4; C-terminal FBG fusion; biotinylated in the ELISA screen; also called Mu TNC; mouse TNC rCd4-His-FBG; not shown: 6His tag
T1 sequence (chain (part 1 of 2)): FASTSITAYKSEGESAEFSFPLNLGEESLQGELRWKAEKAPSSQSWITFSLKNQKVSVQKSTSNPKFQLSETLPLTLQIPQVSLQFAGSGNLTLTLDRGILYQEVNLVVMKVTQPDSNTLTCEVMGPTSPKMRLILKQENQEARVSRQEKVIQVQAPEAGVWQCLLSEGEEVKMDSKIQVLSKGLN
T1 sequence (chain (part 2 of 2)): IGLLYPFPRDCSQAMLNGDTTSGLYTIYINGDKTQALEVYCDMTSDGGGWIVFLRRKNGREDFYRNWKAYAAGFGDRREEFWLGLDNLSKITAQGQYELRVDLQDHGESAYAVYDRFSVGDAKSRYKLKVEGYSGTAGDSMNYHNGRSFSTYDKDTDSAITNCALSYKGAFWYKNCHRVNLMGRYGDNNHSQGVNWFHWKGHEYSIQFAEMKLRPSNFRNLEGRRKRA

[2] = molecular target: T2, human tenascin-C rCd4-His-FBG (rat; human, UniProt P05540 207-392, limits assumed); assay: HTRF competition; competitor d2-labelled B12 IgG
T2 construct: domain: domains 3 and 4; C-terminal FBG fusion; biotinylated in the ELISA and HTRF screens; also called Hu TNC; human TNC rCd4-His-FBG; not shown: 6His tag
T2 sequence (chain (part 1 of 2)): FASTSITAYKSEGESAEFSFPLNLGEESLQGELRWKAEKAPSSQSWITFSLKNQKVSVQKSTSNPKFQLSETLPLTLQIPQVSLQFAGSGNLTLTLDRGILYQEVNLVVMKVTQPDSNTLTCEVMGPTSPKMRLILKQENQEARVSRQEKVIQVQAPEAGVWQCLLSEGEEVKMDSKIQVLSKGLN
T2 sequence (chain (part 2 of 2)): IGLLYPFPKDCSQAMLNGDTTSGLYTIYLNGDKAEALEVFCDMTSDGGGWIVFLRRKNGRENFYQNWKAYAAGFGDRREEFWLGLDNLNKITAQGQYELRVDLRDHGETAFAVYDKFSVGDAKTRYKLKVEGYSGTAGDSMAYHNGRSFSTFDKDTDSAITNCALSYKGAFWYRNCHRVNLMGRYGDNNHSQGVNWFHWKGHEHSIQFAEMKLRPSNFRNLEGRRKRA
Method: All samples and reagents were prepared in assay buffer (50 mM NaPO₄, 0.1% BSA, 0.4 M KF, pH 7.0) at 4× the stated concentration. 5 μl of each reagent was subsequently added to low volume 384-well assay plates (Greiner, 784075) to give a final reaction volume of 20 μl. IgG antibodies were labelled using the d2 labelling kit (CisBio, 62D2DPEA) as directed by the manufacturer. Streptavidin europium cryptate (CisBio, 610SAKLA, Lot#25C) was used at a final concentration of 1.8 ng active moiety (SA) per 20 μl reaction as recommended by the manufacturer. Biotinylated rCd4-His-FBG was prepared using EZ-link Sulfo-NHS-LC-Biotin reagent (Thermo Scientific, 21327) the extent of biotinylation was quantified using biotinylation fluorescence quantitation kit (Thermo Scientific, 46610). Where appropriate, supernatants containing scFv (prepared as described above for ELISA assays) were added to the 384-well assay plate at a final dilution of 1/20 (i.e. 1/5 dilution in assay buffer followed by addition of 5 μl diluted sample to the 20 μl FRET assay). […] Samples were incubated for approximately 1 h at room temperature and the FRET signal was determined using a BMG Pherastar instrument: excitation=320 nm; emission=620 nm and 665 nm; integration start time=60 μs; integration time=500 μs; 100 flashes per well. For competition assays containing culture supernatant, biotinylated rCd4-His-FBG antigen was pre-incubated with streptavidin europium cryptate for 45 min prior to addition of reagents to the assay plate. All FRET signals are presented as ΔR, where R=(E665/E620×104) and ΔR=(Rsample−Rbackground fluorescence).

B1: 162_02_F3 scFv (scFv, V domains shown, not shown: small tags and cut ends)
VH: EVRLVQSGAEVKKPGASVKVSCKVSGYTLTELSMHWVRQAPGKGLEWMGGFDPEDGETIYAQKFQGRVTMTEDTSTDTAYMELSSLRSEDTAVYYCATAQKETYALTYWGQGTLVTVSS
VL: DIQMTQSPASLPTSVGDRVTITCRASQYIQGFLNWYQQKPGKAPRLLIYAASTLQDGVPSRFSGSGYGTDFTLTISSLQPEDFATYYCQNQYRGPWTFGQGTKVEIK
notes: E. coli supernatant scFv
fold improvement in binding over parent [1]: ≥ 10 fold | % inhibition of FRET signal [2]: ≥ 83%

B2: 161_01_C11 scFv (scFv, V domains shown, not shown: small tags and cut ends)
VH: EVRLVQSGAEVKKPGASVKVSCKVSGYTLTELSMHWVRQAPGKGLEWMGGFDPEDGETIYAQKFQGRVTMTEDTSTDTAYMELSSLRSEDTAVYYCATAQKEWLPDVTWGQGTLVTVSS
VL: DIQMTQSPASLPTSVGDRVTITCRASQYIQGFLNWYQQKPGKAPRLLIYAASTLQDGVPSRFSGSGYGTDFTLTISSLQPEDFATYYCQQSYSTPWTFGQGTKVEIK
notes: E. coli supernatant scFv
fold improvement in binding over parent [1]: ≥ 10 fold | % inhibition of FRET signal [2]: ≥ 90%

B3: 161_01_C09 scFv (scFv, V domains shown, not shown: small tags and cut ends)
VH: EVRLVQSGAEVKKPGASVKVSCKVSGYTLTELSMHWVRQAPGKGLEWMGGFDPEDGETIYAQKFQGRVTMTEDTSTDTAYMELSSLRSEDTAVYYCATAQLPYLAQTYWGQGTLVTVSS
VL: DIQMTQSPASLPTSVGDRVTITCRASQYIQGFLNWYQQKPGKAPRLLIYAASTLQDGVPSRFSGSGYGTDFTLTISSLQPEDFATYYCQQSYSTPWTFGQGTKVEIK
notes: E. coli supernatant scFv
fold improvement in binding over parent [1]: ≥ 10 fold | % inhibition of FRET signal [2]: ≥ 90%

B4: 161_01_A12 scFv (scFv, V domains shown, not shown: small tags and cut ends)
VH: EVRLVQSGAEVKKPGASVKVSCKVSGYTLTELSMHWVRQAPGKGLEWMGGFDPEDGETIYAQKFQGRVTMTEDTSTDTAYMELSSLRSEDTAVYYCATAQPTALANTYWGQGTLVTVSS
VL: DIQMTQSPASLPTSVGDRVTITCRASQYIQGFLNWYQQKPGKAPRLLIYAASTLQDGVPSRFSGSGYGTDFTLTISSLQPEDFATYYCQQSYSTPWTFGQGTKVEIK
notes: E. coli supernatant scFv
fold improvement in binding over parent [1]: ≥ 10 fold | % inhibition of FRET signal [2]: ≥ 90%

B5: 160_01_G2 scFv (scFv, V domains shown, not shown: small tags and cut ends)
VH: EVRLVQSGAEVKKPGASVKVSCKVSGYTLTELSMHWVRQAPGKGLEWMGGFDPEDGETIYAQKFQGRVTMTEDTSTDTAYMELSSLRSEDTAVYYCATYTLDNMALTYWGQGTLVTVSS
VL: DIQMTQSPASLPTSVGDRVTITCRASQYIQGFLNWYQQKPGKAPRLLIYAASTLQDGVPSRFSGSGYGTDFTLTISSLQPEDFATYYCQQSYSTPWTFGQGTKVEIK
notes: E. coli supernatant scFv
fold improvement in binding over parent [1]: ≥ 10 fold | % inhibition of FRET signal [2]: ≥ 90%

B6: 160_01_A4 scFv (scFv, V domains shown, not shown: small tags and cut ends)
VH: EVRLVQSGAEVKKPGASVKVSCKVSGYTLTELSMHWVRQAPGKGLEWMGGFDPEDGETIYAQKFQGRVTMTEDTSTDTAYMELSSLRSEDTAVYYCATAQKETLGNAIWGQGTLVTVSS
VL: DIQMTQSPASLPTSVGDRVTITCRASQYIQGFLNWYQQKPGKAPRLLIYAASTLQDGVPSRFSGSGYGTDFTLTISSLQPEDFATYYCQQSYSTPWTFGQGTKVEIK
notes: E. coli supernatant scFv
fold improvement in binding over parent [1]: ≥ 10 fold | % inhibition of FRET signal [2]: ≥ 90%

B7: 160_01_H4 scFv (scFv, V domains shown, not shown: small tags and cut ends)
VH: EVRLVQSGAEVKKPGASVKVSCKVSGYTLTELSMHWVRQAPGKGLEWMGGFDPEDGETIYAQKFQGRVTMTEDTSTDTAYMELSSLRSEDTAVYYCATGRFVWEALTYWGQGTLVTVSS
VL: DIQMTQSPASLPTSVGDRVTITCRASQYIQGFLNWYQQKPGKAPRLLIYAASTLQDGVPSRFSGSGYGTDFTLTISSLQPEDFATYYCQQSYSTPWTFGQGTKVEIK
notes: E. coli supernatant scFv
fold improvement in binding over parent [1]: ≥ 10 fold | % inhibition of FRET signal [2]: ≥ 90%

B8: 160_01_F1 scFv (scFv, V domains shown, not shown: small tags and cut ends)
VH: EVRLVQSGAEVKKPGASVKVSCKVSGYTLTELSMHWVRQAPGKGLEWMGGFDPEDGETIYAQKFQGRVTMTEDTSTDTAYMELSSLRSEDTAVYYCATAQSPWSGMTYWGQGTLVTVSS
VL: DIQMTQSPASLPTSVGDRVTITCRASQYIQGFLNWYQQKPGKAPRLLIYAASTLQDGVPSRFSGSGYGTDFTLTISSLQPEDFATYYCQQSYSTPWTFGQGTKVEIK
notes: E. coli supernatant scFv
fold improvement in binding over parent [1]: ≥ 10 fold | % inhibition of FRET signal [2]: ≥ 90%
